Source: US20210340516A1, “COMPOSITIONS CONTAINING ARGINASE 1 FOR THE TREATMENT OF NEUROVASCULAR AND RETINAL VASCULAR DISORDERS” (Augusta University Research Institute, Inc., priority 2020, published 2021)

How the values were obtained:
[1] = test system: primary rat retinal mixed neurons; assay: Primary retinal mixed neurons subjected to OGD/R, LDH release assay; settings: 6 hours OGD and 18 hours reperfusion, ABH 100 μM at reoxygenation
Protocol: Retinas from ten pups were collected and washed twice with ice-cold 1×PBS. They were digested with 0.5% trypsin for 3-4 min at 37° C., followed by trypsin inactivation with the culture medium, DMEM/F12 (Gibco, Grand Island, N.Y.) plus 10% FBS and 1% Penicillin-Streptomycin (P/S) solution (Invitrogen, Grand Island, N.Y.). The retina tissue was mechanically dissociated by pipetting several times until cells were dispersed. Cells were then filtered through a 40 μm nylon-mesh filter, collected by centrifugation at 1000 rpm for 10 min, re-suspended in culture medium, and plated in 6 or 12 well-cell culture plates (Corning, Corning, N.Y.) coated with Poly-D-lysine hydrobromide (PDL, Sigma) at a density of 0.5×10^6 cells/mL. The plates were maintained in a humidified CO2 incubator at 37° C. and 5% CO2. At days 1, 2, and 3 in vitro (DIV), half of the medium was aspirated and replaced with Neurobasal A medium containing 1×B-27 (GIBCO), 1× glutaMAX (GIBCO) and 1% P/S. Experiments were conducted at DIV 6.

[2] = native enzyme, comparison; cited from earlier work
[3] = test system: mouse model of acute retinal ischemia; settings: intravitreal injection (Fouda 2018); cited from earlier work

## N[C@@H](CCCCB(O)O)C(=O)O [ABH, 2(S)-amino-6-boronohexanoic acid, reference compound]
[1]
  cell death (LDH release): trend towards increased cell death

B1: native enzyme: native, non-PEGylated arginase, compared with PEG-A1 for half-life (protein, UniProt P05089 1-322, looked up)
Arginase-1: MSAKSRTIGIIGAPFSKGQPRGGVEEGPTVLRKAGLLEKLKEQECDVKDYGDLPFADIPNDSPFQIVKNPRSVGKASEQLAGKVAEVKKNGRISLVLGGDHSLAIGSISGHARVHPDLGVIWVDAHTDINTPLTTTSGNLHGQPVSFLLKELKGKIPDVPGFSWVTPCISAKDIVYIGLRDVDPGEHYILKTLGIKYFSMTEVDRLGIGKVMEETLSYLLGRKKRPIHLSFDVDGLDPSFTPATGTPVVGGLTYREGLYITEEIYKTGLLSGLDIMEVNPSLGKTPEEVTRTVNTAVAITLACFGLAREGNHKPIDYLNPPK
[2]
  half-life in vivo: a few minutes

B2: A1: arginase 1 given by intravitreal injection in an earlier study (Fouda 2018) (protein, UniProt P05089 1-322, looked up)
Arginase-1: MSAKSRTIGIIGAPFSKGQPRGGVEEGPTVLRKAGLLEKLKEQECDVKDYGDLPFADIPNDSPFQIVKNPRSVGKASEQLAGKVAEVKKNGRISLVLGGDHSLAIGSISGHARVHPDLGVIWVDAHTDINTPLTTTSGNLHGQPVSFLLKELKGKIPDVPGFSWVTPCISAKDIVYIGLRDVDPGEHYILKTLGIKYFSMTEVDRLGIGKVMEETLSYLLGRKKRPIHLSFDVDGLDPSFTPATGTPVVGGLTYREGLYITEEIYKTGLLSGLDIMEVNPSLGKTPEEVTRTVNTAVAITLACFGLAREGNHKPIDYLNPPK
[3]
  neuroprotection in acute retinal ischemia: showed neuroprotection
